Measured values from the domain aggregation screens of Martell et al. (2025).

Experiment: soluble fraction after stress (log2 fold change); higher = more stays soluble; pooled small domains, quantitative proteomics
Conditions: stress: 50 degC
Procedure, shortened: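 Pooled custom libraries of small protein domains were each held under stress at 50°C. The read-out, high-throughput quantitative proteomics, tracked how much of each protein stayed soluble. This is reported as a base-two log fold change used to indicate aggregation propensity. Higher values mean more protein remains in solution.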

Sequence | soluble fraction (log2)
HMQQYLDAYDKALAFGIAMNKLPSYENLTLDDKEDVDKLKEIYDGMSNYEKTFVAKDFTDKLDRYVKRIE | -0.0367
HMGGFSVTAEAFDGTPEVGKTVGFTAGSTKIKVEDTKGDATFGTILEKETVGFGEGKYTYFYIGL | -0.223
HMLAGVDTLADRELEVFQMLGRGKSTKEIAQVLNLGESTVETYRARIKEKLQLRSAAELYLRAGQWVRDHG | -0.184
HMSRAARLALDALPDEWAQFAESRGLAGSAMAETWETFRDYWQAQPGQKGVKADWAATWRNWVRRETQNRG | -0.167
HMTLSDIGHAVRTRRTELGLSQVQLARLSGLSRQTLVGLENGTLNDLGINRVAQLLAVLGLDAP | -0.827
HMEDSEYDRLLAEIDEGIRKAIETLEPVELSPQNARVRRIQHQIIEKYQLHSDSVGEEPYRRVRIL | -0.593
HMDEAEELYQAVQALKPKYREVILLHYYQGLRVGEIAAILRAPQSTVSIRLRRARQMLNRMLG | -0.548
HMKNFAPVWGEEGAEFGKEVDTGFRLRIVEKEKDVNDLFEVIQKHTIQSQWKPGSTGTESIYKRI | 0.37
HMKNNITFSEFLHEVDNGRVIKVNIQGNNITGILADGKSFNTYTPNDPSLIEKLTSKGVSISATPI | 0.0489
HMEAMITEVKRINYGLISDISKSLDPFKSEGGHIIVDKRTNTFILTDLRANIEKMLWSIEIMD | -0.111
HMGDLEEAVKDFSEAIRLNDSWAEAYANRAVVYAEQGDAAQSDQDAEKARLLGVDQNRLNEMLNAVNS | 0.0258
HMAIELIDLIKNPETAPFSKLKYLKWMPEAEVTGFFNNLFQLNVTARETGDWSTVDKFLEDEGDRIAAQVA | -0.138
HMDRSAQVLFLEHARSRLPQRIQWAEELAELLSIGIDSAYRRIRGETALTFNEAVSVSRKYDISLDYLFK | -3.62
HMLSKEFRFFTYLLESYAQHKNTTAGAVLKTLDEKGLTDFVYKMYDLYHVEAIENAYMDLDSLIATGKPA | -2.98
HMGMTRPLFVTDPGLVRIGLVSPIFEKLGSGKLSPQLFDQVKEDPPEQTVFDGVEFARETGIDGVIGFG | -0.124
HMAATISPEIQAEAEKAAALGVESIKNFMASLKEKNPEQHALFSDSEKRRLYAIARKADLNTTQQG | -0.103
HMTITDDETHKVLEEGASRMSEGLTFRDLVDLDRLHLTARGVIQKVLNENRIDADVDTIANMAQKLVARVS | -0.0539
HMIKSMTGYGSAKGTVEGIEVSVELKSVNNKFLDTSIRLPRSFLFAEETIKQAVSSHISRGKVDVFVSVDS | ≥ 0.62
HMAGTAMRATTAVNVRSGAGTNYSRIGLLQAGEQIQALSSKNGWTQVSYKGRTGYVASAYLASL | -0.309
HMTGEDIKKVILREYAREKSLLSIFHELSKVNSNVTLEVIKDIITNIDKLPNDLLQYFKEESSFYQKNKN | -0.397
HMDNPYEVFIPNSYIGQRLDQTLASLFPQFSRSRLQNWLASGNLLVNGKIVKPKTKILGGEQINILDPYN | -0.339
HMRLIALPSVTDISIRQAEATLMSIGIKVSSIQYAPSEYKDLVLEVKYRGQSIIQGAKIPEGSSVVLVAGN | -1.56
HMYNNDEIEKIQTMYNAIYQLNDIEKALIMLFLEDKSYKEIAEIMGISEGNARIKMMRTKDKLKNLISKN | -0.369
HMEKGNEEALEQAREAILAVQSGEKYVDLDPANAAIRRKQHALAQASDLVSQSYGKDPNRYVRIFR | 0.34
HMTPADEAGNDLDIGQTVKILRRVSEGQYEVSYRGTTWQARALNAQAAVEPSFAVIGGKEGNILLVHL | 0.122

Sequence | soluble fraction (log2)
HMKPVTNHTVKFYVDDVLWKTVTVKHGGNVRLADLPMSDGKTFVGWSESVVNVTKDLTVFALFS | -0.562
HMALPGESVYVSILQSGSNRDQGVGYLDDGTMVVVDGAIKDIGKSIEVVINKSHQTVAGKMLFAKKVA | -0.0558
HMDPTVTFIVQVNGRVRDKITLSSDISENEAKNVALESPKITPHISGKSLSRVIFVPGKLINLVV | -0.578
HMGNLEENFRLKAGTEDGAWEFIRYHLGKLPVVNESNGTAIVNAERQAFLLFDRMVAFHIQRGVMVPLSAP | 0.0891
HMGMMTLGQRIAQYRKAMGISQEELGGRLGVSRQAVSKWETDAAAPDMENLLALAREFGVSVAELTETP | -0.0446
HMSRLQDAELQAQIDKMAGAMQLRDIPVYVQDIPTINGLAAPDGRVFITQGFIDKYKLGEVSAGEIASVI | 0.36
HMLPNIKSEMEILGDNAKARLEAAELWSKKYLSNEAYDTMSKLATTADGVKAIEEIMNITKS | -0.0779
HMKELVAGQTVRVHHSIGFGQTGTVTALNSLKTTLPNGLRTNTASILFQNNEKVVLPISNFDIIES | -0.139
HMEIIMIVITKPSITDERIAEIVAVIERNGGVQAHVSKGTDRTVIGIIGKAEPTLAEHLRQMKGVENVIKI | 0.0636
HMGSKQVSVPDVRNLDYERASQQLREAGFVVGDVLRIRDDRAPAGTVIAQSPAAPALVPENARVSLLVSSG | 0.251
HMGALARLLASVEQELGVTRDRMTRTQKQEAVTLLNEWGAFTLRKSVEDVAEALGVSRFTVYNYLERAEA | -2.74
HMKDRDISNAVLNILSKDSDHNYNYKQIASVLGVKDPFVRKRIVSVLAQLTKNGQLEEISRGKYQIKN | -0.618
HMARNHYETLGVGRTATGDEIRKAYRSEAQKHHPDRGGDAERMQSLNEARDTLLDDQARAAYDQELDL | 0.125
HMKKVTMQDIANILNISRVTVWKVLNNQPGVSKQLRDQILLTAKETGYLKPGQEAEAYLEENNIYFEG | 0.176
HMSKEDDSLVVTFRRMLLEEVDLHELSRIDANQRRARLERVIAHLVSREGVILSASERNQLVRRVVDEAV | -0.529
HMISADSSKVDTLVQVYSNMKPIQAAQVFEKMDEDLVIEILSRMKKKNAADILNLIKTEKAQVFAEKYA | 0.0124
HMSHDTLVYRLAQMLVKLNQGEKLDPQQLAEEFGVNLRTIQRDLNVRFAYLQLEKTDGRYHLDPTFL | -0.999
HMEEEPALLRDLLAKTLEFGLIPQLSHHPALADRTQQLASAVRAAGSASALRNAAASLKSLWIDVDQ | -0.0318
HMVLIQNEDVKDISNYPLLSSVPVFDVFNNKMIIPTFNKDSFNPLIYNFNFNSKRRLIYRVDNTNYLIVIK | 0.0177
HMFTEPQKLVKRILNMLGHRYDDASIQARSDFQASNNYHKVQVKKKRESMEEYTAWLEEMYDAYRIN | -1.43
HMDPHEEELLRQLIRGDIAGYEVLFHKYYPTFFAFIKGMTKETVVAEDITQNIFMKVWLNRERLDAA | -0.0635
HMRKATEVPFTAFKDSIENSHGKLSKAGLARHLADEYGMSQRNMERRINNLIDNKTIKYGNEGGLVWIG | -0.0291
HMANLLNLREIPVANIRPELTMFLIPGENITQAFQTIRDQVVFTNKRLIVANVQGLTGKKVSYTSYPY | -0.374
HMRAVPSIAFVTQKLIEQGVTMEQLVRSLLLDHEEYENDDSLERTADELFGKARMIISNYTPE | -1.01
HMEFDIDAAIHAALEPQAVMRAWFGHEGREYPEDFGVVFFRGWESFTHQEKVEAVRDAKKVLDRAVR | -0.516

Sequence | soluble fraction (log2)
HMEIIFVEHKVRPGESVWLIARKYKVKKNHILAVNNLSEKSIIRPKQILKIPTSGYDQYKKSVE | -3.22
HMTRETTQAWWEARQTLPSGEQRSAASLSQEASHVRRFYRWAMQQGLTDRNPADWLPDVRQK | -0.232
HMANADVVLVDLDKEYTVDAAKFHSVVKHSPFNGFAVKGAPVLTIVRGTVVAENGEVVGQPGHSKMVRP | -0.0579
HMTQEAMRSLRKSLQNLSSRQQVIFMLRHYEGLALKEIAEHLGLETGTVKAHLHRAVTQLRKDLVE | -1.68
HMFPELSEEEQIIVSLLQKQPDGLQINTLVVESNIPVNRMSGILFELEMKGIIRMAAGGVYRLL | -0.203
HMRSEILNLLREKSPQPVSGQDLANHFGITRTAVWKHIQSLKKMGYGIEAYTKKGYVLVSVPN | -0.0638
HMNTKLKPLYLLDIFREMTDERHRMTVPELLEELQRRGITAERKGIYRDIDALIQYGADIKHTGTGYYLAR | -0.561
HMTQLEVDLFERLITISGVGPRLALAVLSGLEPPDLLRAIQDSDIVRLQGIPGVGKKTAERISLELKDKLS | -0.963
HMEDIPENIRYKFLLKELKENEHLNILDKENIARKLTEIDLPELEKELLENEILNSTIKDYLGIKLV | 0.173
HMDKSFLQSLHLIALGIVKNQMDPWELVNGWVEYYLKNKDKYIDHPNLKAVAVLKMKGLFIDHFRKS | -4.84
HMHVSLADQAYKTIRTNILNLTYPPGTQLTEAKLASDLNMSRSPVRTAIKMLQADGLLVSDYYKSMTVK | -0.514
HMITSELALVKLVVKGANRVEALRVAETFRARALDVTLSSFVFELTGKPSKLDAFIGLMRSLGDTEILKR | -4.06
HMFSGVQLGQAISEAIKRKNVSQKEVADHFGVKQPSVSGWIKNGRIDKKHLDKLIDYFSDVVTPSHFGIE | 0.246
HMIGGEDEILKVVLEVLEEKPEAIEQYKNGRTNIVDFLVGQVMKKTRGQANPATTREFMIREIEK | 0.0588
HMTEPKILTAEESQRLDLILVQQWPELGRRALRELVQQGGVRINGELALKAGQYVQAGERVEVAVP | 0.0571
HMKKNNTTPIPKTLNYVNIKGLSNEAVERLNKHKPSTLGQASRLEGITPAATSLISIAIKKNQLLEKAES | 0.251
HMNVAVGNSKLVGVAGERAYFVNGVGAAARTLSLQVGDALPTGEKVRRIERDGVTMTGASGDVRLSVLP | 0.0813
HMSKKMLASIFDTISGIGKKRLKKIWDNYTSLNELKDDSLENIYAKTQIPINLITKIKEKLE | -0.37
HMAGWMPGGTNPAEPGRFAVLMDVDDSDAYKHMFLRWNGHAWEFERTRVLVKMEPSWWMRLPDDPEKP | -1.99
HMQIAEAESLGQRLLQQSINNIVGRDEAITEERLNRVLSQYSLTGRDELMAQIGLGNRNSSLVAKAMYDI | 0.0632
HMLKSGSAVAQARDVILEKGVPVHINEILDALGKGDTREAKASLTSSLAAYVRRGEIFTRPAPNTFGLVEL | -0.372
HMETGELQQILEDVFSKNIGIVQDKREAAFSILMGMIMAKSRGRADGALVSTLLKKKLTEFLATSDQVR | 0.0929
HMQNSYSVEDLALKAGLSVDTIRYYQGLDLIAPPQKNGRRAIYGDEHLSRLDEIKKLALEGFSLRQISLLK | -0.652
HMHGLNQNKPIPIADIVNSVNNYLTSLGKKTITDNSVLSNLKKAAKYLNTAYNLVLRPDSLNMTVTLL | 0.0467
HMVELPDLIGKSKRLAFTQLEISGLKIGKIIYEPDLAKDAVLKILYNGKIVKAGEQLPRFATVDLVLG | -0.0407
